“Also recorded” adds a separate entry of the source.
How the values were obtained:
[1] = tested on: chemerin-knockdown 786-O cells; experiment: Cell proliferation assay, rescue in chemerin-knockdown 786-O cells; format: cell-based, human
Method: Cell Proliferation Assay. Cells were plated at a density of 100,000 cells in triplicate wells of a 6-well plate, supplemented with DMEM containing 10% FBS. Cells were trypsinized and were counted using the Cell Counter Countess II (Life Technologies) at days 3, 6, 9 and 12.

786-O and 769-P cells = experiment: EdU incorporation assay (DNA synthesis); format: cell-based, human; settings: chemerin-knockdown 786-O cells, etomoxir 50 μM and 100 μM, EdU flow cytometry
Method: EdU incorporation assay. […] After incubation, the cells were fixed with 3.7% formaldehyde/PBS for 15 minutes at room temperature and washed with 1 mL of 3% BSA/PBS twice. 1 mL of 0.5% TritonX-100 in PBS was added for 20 minutes at room temperature to permeabilize the cells. Next, cells were incubated with 0.5 mL of Click-iT reaction cocktail (Invitrogen, Cat #C10337) prepared according to manufacturer's instructions, at room temperature for 30 minutes and away from direct light. DAPI (Millipore, Cat #268298) was added later for DNA staining. […]

[2] = tested on: HIF2α and chemerin protein in 786-O and 769-P cells; experiment: Immunoblots of lysates after fatty acid treatment; format: cell-based, human; settings: 500 μM fatty acid
Method: Protein Extraction and Western blotting. The cells were washed with 1× ice-cold PBS (GE, Cat #SH30256.01) once before they were lysed in RIPA lysis buffer (50 mM Tris-HCl, pH 7.5; 150 mM NaCl; 0.5% NP-40; 50 mM NaF) and scraped from the plate on ice. The RIPA lysis buffer contained 1:1000 1× protease inhibitor cocktail (Sigma-Aldrich) and 1:100 1× phosphatase inhibitor (Sigma-Aldrich). The lysates were passed through a 16G needle 15 times before they were centrifuged at 4° C. for 20 minutes at 20,000×g. The protein lysates were quantified using the Pierce BCA Protein Assay Kit (Thermo) according to the manufacturer's protocols and absorbance was measured using GloMax Discover Microplate Reader (Promega). Between 50 and 100 μg of protein samples were mixed with 5×SDS Laemmli loading buffer and boiled at 95° C. for 5 minutes. Proteins were separated using 4-20% SDS-PAGE gels (Bio-Rad) and transferred onto PVDF membrane (Millipore). The membrane was blocked with TBS-T supplemented with 5% non-fat dry milk primary antibody for 45 minutes at room temperature rocking before blotting with primary antibodies at 4° C. overnight. The membrane was washed in TB S-T 3 times with 5 minutes each and blotted in secondary antibodies at room temperature for 2 hours. An Azure 300 chemiluminescent western blot imaging system (Azure biosystems) was used to visualize the membrane. […]

HIF2α mRNA in 786-O = experiment: qRT-PCR of HIF1α and HIF2α after fatty acid incubation; format: cell-based, human; settings: 500 μM fatty acid for 24 hours
Method: RNA Isolation and Real Time Quantitative Polymerase Chain Reaction (qRT-PCR). Total RNA was extracted using TRIzol reagent (Invitrogen, Cat #15596018). The concentration and quality of RNA were determined using a NanoDrop 1000 spectrophotometer (Thermo). 500 ng of RNA was used to synthesize cDNA using the Quantabio qScript cDNA SuperMix (Quantabio, Cat #95048-100) according to the manufacturer's recommendations. The cDNA was diluted by 10-fold before used for qRT-PCR gene expression analysis. qRT-PCR was performed using Power SYBR Green PCR Master Mix (Applied Biosystems, Cat #4367659) and SYBR Green primers (Table 3). The Ct values of the gene of interest was normalized to the Ct value of the housekeeping control, β-actin. The fold change was then calculated using the 2^−ΔΔCt method. Sodium palmitate preparation and supplementation. To prepare BSA-palmitate conjugate, sodium palmitate (Thermo, Cat #P0500) was added to a NaCl solution and heated in a water bath while stirring. The hot palmitate solution was mixed with BSA solution, 5 mL at a time. The final volume was adjusted with 150 mM NaCl for 1 mM palmitate solution and pH was adjusted to 7.4. Sodium palmitate solution was added to cell at final concentration 500 μM and incubated for 24 hours.

786-O cells [3] = experiment: Cell viability assay (MTT) after monoclonal antibody treatment, 786-O; format: cell-based, human; settings: increasing concentrations of mAb, 2, 4 and 6 days
Method: Cell Viability Assay. After treatment with monoclonal antibodies, 786-O cells were incubated with 3-(4,5-dimethylthiazol-2-yl)-2,5-diphenylterazolium bromide (MTT, Sigma-Aldrich) to assess cell survival. Briefly, the cells were plated at density of 1000 cells/plate in 96-well plates and treated with different concentrations of monoclonal antibodies (IgG or anti-RARRES2) for indicated incubation times (2 days, 4 days and 6 days). MTT solution was diluted 5-fold in DMEM media and incubated in 37° C. incubator for 4 hours. The media was carefully removed and the precipitate was dissolved in DMSO. The solution later immediately quantified at 450 nm using the GloMax Discover Microplate Reader (Promega).

HK-2 cells = experiment: Cell viability assay (MTT) after monoclonal antibody treatment, HK-2; format: cell-based, human; settings: similar dose range of the antibody
[4] = tested on: patient derived xenograft of kidney cancer; experiment: Patient derived xenograft of kidney cancer, antibody versus cabozantinib (FIG. 20); format: in vivo; settings: antibody 20 mg/kg twice per week versus cabo 10 mg/kg 5 times per week
786-O cells [5] = experiment: Oil Red O (ORO) lipid droplet staining of cells; format: cell-based, human; settings: compared to treatment with IgG
Method: Oil Red O (ORO) Lipid Droplet Staining. For tissue sections staining, the tissues were cryoprotected by incubating in 30% sucrose/PBS solution. After the tissues sank to the bottom of the vial, the tissues were embedded in OCT (Fisher Healthcare). Embedded tissue blocks were sectioned at 10 μm thickness and stored at −80° C. until ready for staining. Before ORO staining, the frozen sections were air dried and fixed in 10% neutral buffered formalin (Sigma-Aldrich, Cat #HT501128). After fixing in 100% propylene glycol (VWR, Cat #0575) twice, sections were stained with freshly made ORO solution (Sigma-Aldrich, Cat #00625) followed by staining for hematoxylin. Then, the slides were washed with distilled water and mounted using glycerin jelly (Sigma-Aldrich). The sections were visualized using a VS120 Virtual Slide Microscope scanner (Olympus). For cell staining, the cells plated in 12-well plates in triplicate were rinsed with PBS twice, and fixed with 10% formaldehyde for 1 hour. […] After the cells were air dried, 250 μL of isopropanol was added to the wells and the eluted solution was measured at 510 nm. Next, the cells were stained with sulforhodamine B as previously described, and measured at 564 nm using GloMax Discover Microplate Reader (Promega), as previously described.

786-O cells [6] = experiment: Lipid reactive oxygen species, BODIPY 581/591 C11; format: cell-based, human; settings: compared to treatment with IgG
Method: Lipid Reactive Oxygen Species. The cells were plated at 50,000 cells per well in 24-well plate. 10 uM BODIPY-581/591 C11 (Invitrogen, Cat #D3861) and 1 ug/mL DAPI (Millipore) were added to the media and incubated for 1 hour at 37° C., 5% CO2. Cells were imaged using Olympus FV1000 confocal scanning microscope and analyzed using Fiji software (ImageJ). 9 randomly selected images per condition were selected for analysis.

786-O orthotopic tumors = experiment: Orthotopic 786-O tumor growth under left kidney capsule of nude mice (bioluminescence imaging); format: in vivo; settings: for in vivo 786-O tumor growth (bioluminescence imaging): 20 mg/kg twice weekly versus IgG control mAb, n=6 each arm; for animal weight / toxicity: nude mice with orthotopic 786-O, 20 mg/kg twice weekly, weight recorded weekly
From the text: Animal Studies. All animal experiments were in compliance with National Institutes of Health guidelines and were approved by the Institutional Animal Care and Use Committee (IACUC) of the University of Miami Miller School of Medicine. Six-week-old female athymic nude mice (Charles River Laboratories) were used for xenograft studies. Mice were housed (3-5 mice per cage) on a 12-hour light/dark cycle in individually ventilated cages, and with ad libitum access to food and water. The experimental holding room had temperature (21.5° C. set point) and humidity control (40% set point), and it was equipped with HEPA-filtered air. For subcutaneous tumor growth model, cells were pelleted and resuspended in a PBS/Matrigel Matrix (Corning, Cat #356234) mix at 1:1 ratio. 2×10^6 cells in a 100 μL solution were injected subcutaneously into each flank. Once palpable tumors were established, digital calipers were used to measure tumor size twice weekly. Tumor volume was calculated using the equation V=½ (length×width^2). For orthotopic tumor growth assays, soft collagen pellets containing 1×10^6 cells were implanted orthotopically under the capsules of the left kidney. Tumors were palpated and monitored twice weekly using IVIS bioluminescence imaging (Perkin Elmer). At the end of the experiments, blood was collected and both kidneys were harvested.

786-O cells [7] = experiment: BODIPY 493/503 lipid droplet imaging; format: cell-based, human; settings: chemerin-silenced 786-O cells; 50 nM recombinant chemerin protein for 18 hours
Method: BODIPY Lipid Droplet Imaging. Cells were plated on round glass coverslips of 12-well plates and incubated with 1 mL of DMEM supplemented with 10% FBS. The medium was removed and cells were washed with room temperature PBS, fixed with 4% formaldehyde for 30 minutes and incubated with 300 μL of 1 uM BODIPY 493/503 (Life Technologies, Cat #D3922) for 15 minutes, protected from direct light. 1 μg/mL of DAPI (Millipore) was added for nucleus staining. The z stack images were acquired using Olympus FV1000 confocal scanning microscope and analyzed using Fiji software (ImageJ).

CCOC(=O)c1ccc(NC2CCCCC2)c(N)c1 [Ferrostatin-1]
rescue of proliferation defect ([1]; chemerin-deficient 786-O cells, 1 μM Ferrostatin-1): rescued the proliferation defect

Clc1cccc(CN=C2Nc3ccccc3NC23CCNCC3)c1 [Liproxstatin-1]
rescue of proliferation defect ([1]; chemerin-deficient 786-O cells, 0.5 μM Liproxstatin-1): rescued the proliferation defect

CCOC(=O)[C@@]1(CCCCCCOc2ccc(Cl)cc2)CO1 [etomoxir]
rescue of proliferation defect ([1]; chemerin-knockdown 786-O cells, 50 μM Etomoxir): rescued | rescue of proliferation defect ([1]; chemerin-knockdown 786-O cells, 50 μM Etomoxir, listed as Etomoxir): rescues proliferation defect | rescue of DNA synthesis (EdU) (786-O and 769-P cells): rescued the reduction in DNA synthesis | rescue of DNA synthesis (EdU) (786-O and 769-P cells; listed as Etomoxir): rescues tumorigenesis

CCCCC/C=C\C/C=C\CCCCCCCC(=O)O [linoleic acid]
HIF2α protein [2]: opposite pattern; also recorded: decreased | chemerin protein [2]: opposite pattern; also recorded: decreased | HIF2α mRNA (HIF2α mRNA in 786-O): opposite pattern

B1: chemerin mAb: monoclonal antibody against chemerin; heavy chain SEQ ID NO: 3, light chain SEQ ID NO: 4 (antibody, V domains shown)
VH: MEWNWVVLFLLSLTAGVYSQGQMQQSGAELVKPGASVKLSCKTSGFTFSSSYISWLKQKPRQSLEWIAWIYAGTGGTSYNQKFTGKAQLTVDTSSSTAYMQLSSLTSEDSAIYYCASFWDSWGQGTTLTVSS
VL: MRCLAEFLGLLVLWIPGAIGDIVMTQAAPSVPVTPGESVSISCRSSKSLLHSNGNTYLYWFLQRPGQSPQLLIYRMSNLASGVPDRFSGSGSGTAFTLRISRVEAEDVGVYYCMQHLEYPLTFGAGTKLELK
cell viability (786-O cells [3]): dose-dependent reduction in cell viability | cell viability (HK-2 cells): cell viability was not affected | efficacy compared with cabozantinib [4]: as effective as cabo | lipid droplets (ORO staining quantification) (786-O cells [5]): decrease in lipid droplets | lipid ROS (BODIPY 581/591 C11) (786-O cells [6]): increase in lipid ROS | in vivo 786-O tumor growth (bioluminescence imaging) (786-O orthotopic tumors): significantly reduced | in vivo 786-O tumor growth (bioluminescence imaging) (786-O orthotopic tumors; listed as monoclonal antibody (mAb) targeting chemerin): reduces ccRCC tumor burden | tumor weight upon sacrifice (786-O orthotopic tumors; 20 mg/kg twice weekly versus IgG mAb, n=6 each group): lower tumor weights | animal weight / toxicity (786-O orthotopic tumors): did not result in significant changes in animal weight | animal weight / toxicity (786-O orthotopic tumors; listed as monoclonal antibody targeting chemerin): no toxicity

B2: recombinant chemerin protein: recombinant chemerin protein used to rescue chemerin-silenced cells (protein, UniProt Q99969 21-157, looked up)
Retinoic acid receptor …: ELTEAQRRGLQVALEEFHKHPPVQWAFQETSVESAVDTPFPAGIFVRLEFKLQQTSCRKRDWKKPECKVRPNGRKRKCLACIKLGSEDKVLGRLVHCPIETQVLREAEEHQETQCLRVQRAGEDPHSFYFPGQFAFS
rescue of lipid deposition (BODIPY 493/503) (786-O cells [7]): partially rescued; also recorded: rescued the lipid deposition defect
